{
  "source": "paper PMC10269693",
  "test_system": "CN[C@@H]1[C@H](O)[C@H](NC)[C@H]2O[C@@]3(O)C(=O)C[C@@H](C)O[C@H]3O[C@@H]2[C@H]1O",
  "test": "purified protein",
  "conditions": "5 mM ATP, 10 mM MgCl2, 50 mM HEPES pH 7.5, 37°C",
  "data": [
    {"substance": "ANT(9)-Ib (Enterococcus faecalis)", "values": [
      {"measurement": "Km", "result": "33.56 ± 8.1", "unit": "µM"},
      {"measurement": "kcat", "result": "2.6 ± 0.2", "unit": "s⁻¹"},
      {"measurement": "kcat/Km", "result": "83000 ± 21000", "unit": "M⁻¹ s⁻¹"}
    ]}
  ]
}
